Reference: patent US20100056764A1
Values joined by “and” are separate entries in the source; they are usually repeats but may differ in a detail not shown here. Equal entries are not always repeated. Where two headings read alike, the source gives them in different places.

Experiments:
[1] = target: human NKG2D (hNKG2D) on the cell surface (human) (UniProt P26718); experiment: flow cytometry, NKG2D-expressing cells pre-incubated with ON72 (0.3 µg), then 16F16 IgG4 (0.3 µg, competitor); legend of FIG. 9A
Chain of human NKG2D (hNKG2D) on the cell surface (human) (P26718 whole entry T72A): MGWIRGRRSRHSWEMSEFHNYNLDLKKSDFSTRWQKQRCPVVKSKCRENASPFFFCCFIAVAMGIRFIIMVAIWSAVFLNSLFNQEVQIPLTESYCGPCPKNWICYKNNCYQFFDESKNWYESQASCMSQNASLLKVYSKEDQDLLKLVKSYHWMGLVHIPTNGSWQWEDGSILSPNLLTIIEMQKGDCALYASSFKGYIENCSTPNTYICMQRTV

[2] = target: human NKG2D (hNKG2D) on the cell surface (human) (UniProt P26718); experiment: cell-based or functional assay
[3] = target: human NKG2D (hNKG2D) on the cell surface (human) (UniProt P26718); experiment: flow cytometry, NKG2D-expressing cells pre-incubated with ON72, then recombinant 16F16 (competitor)
[4] = target: human NKG2D (hNKG2D) on the cell surface (human) (UniProt P26718); experiment: flow cytometry, dose-response on NKG2D- and DAP10-expressing BaF/3 cells, y axis % of max binding
[5] = target: human NKG2D (hNKG2D) on the cell surface (human) (UniProt P26718); experiment: flow cytometry, NKG2D/DAP10 BaF/3 cells pre-incubated with antibody, then 1 µg hFc-MICA (competitor)
[6] = target: human NKG2D (hNKG2D) on the cell surface (human) (UniProt P26718); experiment: flow cytometry, dose-response on NKG2D- and DAP10-expressing BaF/3 cells
[7] = target: recombinant NKG2D-Fc protein (R&D Systems), immobilized on a Biacore CM5 chip (human) (UniProt P26718); experiment: SPR (Biacore), NKG2D-Fc immobilized on CM5 chip, antibody in solution
Chain of recombinant NKG2D-Fc protein (R&D Systems), immobilized on a Biacore CM5 chip (human) (P26718 78-216): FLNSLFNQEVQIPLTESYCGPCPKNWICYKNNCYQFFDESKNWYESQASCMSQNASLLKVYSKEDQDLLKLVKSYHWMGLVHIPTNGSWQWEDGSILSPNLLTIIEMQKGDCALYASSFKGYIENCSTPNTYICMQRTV

[8] = target: human NKG2D (hNKG2D) on the cell surface (human) (UniProt P26718); experiment: flow cytometry, NKG2D/DAP10 BaF/3 cells pre-incubated with antibody, then 1 µg hFc-MICA (competitor); remark: listed apart in the source
[9] = target: human NKG2D (hNKG2D) on the cell surface (human) (UniProt P26718); experiment: flow cytometry blocking assay on NKG2D/DAP10-expressing BaF/3 cells: pre-incubation with the antibody, then 1 µg MICA-Fc (hFc-MICA, m12, for ON72 according to paragraph 390); y axis % remaining MICA-Fc binding

ON72, commercially available murine anti-hNKG2D monoclonal antibody (Beckman Coulter Inc.)
% of 16F16 binding prevented [1]: 85%
% proliferation of PBMC, stimulation CD3 0.1 + CD28 + ON72 (immobilized antibodies) [2]: 22.9%
% proliferation of PBMC, stimulation CD3 0.1 + ON72 (immobilized antibodies) [2]: 7.12%
% proliferation of PBMC, stimulation CD3 0.3 + CD28 + ON72 (immobilized antibodies) [2]: 40.1%
% proliferation of PBMC, stimulation CD3 0.3 + ON72 (immobilized antibodies) [2]: 28.4%
EC50 (µg/ml), inhibition of NK cell killing of ULPB3-expressing target cells (51Cr release) [2]: 0.065 µg/mL
down-modulation of cell-surface NKG2D, NKG2D/DAP10 BaF/3 cells, overnight incubation [2]: 55%
internalization of NKG2D at 1 h, NKG2D+ lymphocytes in whole blood, 0.1 µg/ml [2]: 50 to 75%
internalization of NKG2D at 24 h, NKG2D+ lymphocytes in whole blood, 0.1 µg/ml [2]: 100%
% of 16F16 binding blocked [3]: 82%
EC50 (read off the curve) [4]: 0.06 nM
IC50 [5]: 0.019 µg/mL
full blockade of 1 µg MICA-Fc (antibody concentration) [5]: 0.54 µg/mL
EC50 [6]: 0.062 µg/mL and 0.048 nM
Kd [7]: 0.17 nM
koff [7]: 0.00011 s⁻¹
kon [7]: 960000 M⁻¹ s⁻¹
IC50 [8]: 0.02 nM
full blockade of 1 µg MICA-Fc (antibody concentration) [8]: 0.24 nM
IC50 (read off the curve) [9]: 0.02 nM
